Source: US20130302346A1 (LEXICON PHARMACEUTICALS, published 2013)
Like-named read-outs stand apart in the source and are kept apart here.

T1: Human NOTUM (human, UniProt Q6P988 20-496)
T1 construct: also called human notum pectinacetylesterase; recombinant human NOTUM
T1 sequence: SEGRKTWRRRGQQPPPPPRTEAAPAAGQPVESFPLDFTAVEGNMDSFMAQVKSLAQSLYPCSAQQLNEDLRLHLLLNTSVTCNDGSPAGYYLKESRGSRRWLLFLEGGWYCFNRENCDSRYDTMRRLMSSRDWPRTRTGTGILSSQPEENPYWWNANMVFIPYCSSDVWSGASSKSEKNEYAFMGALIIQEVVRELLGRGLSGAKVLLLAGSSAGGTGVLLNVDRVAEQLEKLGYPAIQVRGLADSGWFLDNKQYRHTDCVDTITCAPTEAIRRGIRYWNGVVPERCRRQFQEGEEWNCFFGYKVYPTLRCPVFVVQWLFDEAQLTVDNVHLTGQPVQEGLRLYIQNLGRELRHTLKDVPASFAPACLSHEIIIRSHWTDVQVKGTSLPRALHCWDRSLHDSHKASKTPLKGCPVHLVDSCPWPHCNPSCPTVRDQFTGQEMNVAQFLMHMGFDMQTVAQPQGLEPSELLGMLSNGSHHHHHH

T2: Guinea pig NOTUM (guinea pig, UniProt Q6P988 21-496 (human entry))
T2 construct: Expressed by transient transfection
T2 chain: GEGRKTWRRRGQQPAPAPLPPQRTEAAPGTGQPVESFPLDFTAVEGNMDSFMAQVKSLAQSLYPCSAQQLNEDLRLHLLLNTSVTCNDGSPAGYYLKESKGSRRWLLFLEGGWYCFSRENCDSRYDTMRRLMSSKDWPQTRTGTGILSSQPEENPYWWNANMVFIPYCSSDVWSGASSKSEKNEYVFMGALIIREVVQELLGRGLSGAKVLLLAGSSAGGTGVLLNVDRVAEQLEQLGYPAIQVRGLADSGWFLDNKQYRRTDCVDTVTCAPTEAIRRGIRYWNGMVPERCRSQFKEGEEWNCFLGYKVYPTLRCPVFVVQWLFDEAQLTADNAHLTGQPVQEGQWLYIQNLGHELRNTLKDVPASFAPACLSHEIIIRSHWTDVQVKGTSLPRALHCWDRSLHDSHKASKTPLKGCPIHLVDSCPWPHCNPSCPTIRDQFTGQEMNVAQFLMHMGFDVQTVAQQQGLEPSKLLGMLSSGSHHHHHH

T3: Rhesus monkey NOTUM (rhesus monkey, UniProt Q6P988 20-491 (human entry))
T3 construct: Produced by transient transfection; also called Rhesus macaque NOTUM; rhesus NOTUM
T3 chain: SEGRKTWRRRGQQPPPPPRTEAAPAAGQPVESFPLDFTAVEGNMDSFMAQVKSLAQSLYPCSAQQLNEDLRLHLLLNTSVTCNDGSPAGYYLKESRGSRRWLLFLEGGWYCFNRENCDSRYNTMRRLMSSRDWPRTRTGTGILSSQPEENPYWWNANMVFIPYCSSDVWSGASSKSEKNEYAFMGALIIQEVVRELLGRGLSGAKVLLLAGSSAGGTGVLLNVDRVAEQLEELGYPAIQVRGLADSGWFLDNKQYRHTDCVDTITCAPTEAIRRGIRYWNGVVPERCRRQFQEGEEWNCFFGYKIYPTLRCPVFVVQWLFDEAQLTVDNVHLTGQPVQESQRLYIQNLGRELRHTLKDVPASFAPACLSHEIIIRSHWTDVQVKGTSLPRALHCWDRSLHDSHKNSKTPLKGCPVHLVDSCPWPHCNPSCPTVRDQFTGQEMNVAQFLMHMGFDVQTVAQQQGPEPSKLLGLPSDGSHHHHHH

T4: Human NOTUM D137A/R139A (human, UniProt Q6P988 20-496)
T4 construct: Alanine mutant, expressed and secreted after transient transfection; little to no activity in the OPTS assay
T4 sequence: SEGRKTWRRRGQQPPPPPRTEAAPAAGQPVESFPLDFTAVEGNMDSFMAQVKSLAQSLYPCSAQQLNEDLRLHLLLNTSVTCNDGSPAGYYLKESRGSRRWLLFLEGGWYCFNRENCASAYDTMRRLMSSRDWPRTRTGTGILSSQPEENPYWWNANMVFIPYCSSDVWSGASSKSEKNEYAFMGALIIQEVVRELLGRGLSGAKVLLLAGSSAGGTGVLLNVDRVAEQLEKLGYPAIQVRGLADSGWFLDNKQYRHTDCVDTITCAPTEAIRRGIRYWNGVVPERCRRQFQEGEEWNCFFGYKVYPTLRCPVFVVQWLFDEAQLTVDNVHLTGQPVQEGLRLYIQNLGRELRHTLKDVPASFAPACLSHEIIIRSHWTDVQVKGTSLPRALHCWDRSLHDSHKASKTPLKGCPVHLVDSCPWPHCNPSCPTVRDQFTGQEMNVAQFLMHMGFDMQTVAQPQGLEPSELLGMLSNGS

T5: Human NOTUM R144A/R145A (human, UniProt Q6P988 20-496)
T5 construct: Alanine mutant, expressed and secreted after transient transfection
T5 sequence: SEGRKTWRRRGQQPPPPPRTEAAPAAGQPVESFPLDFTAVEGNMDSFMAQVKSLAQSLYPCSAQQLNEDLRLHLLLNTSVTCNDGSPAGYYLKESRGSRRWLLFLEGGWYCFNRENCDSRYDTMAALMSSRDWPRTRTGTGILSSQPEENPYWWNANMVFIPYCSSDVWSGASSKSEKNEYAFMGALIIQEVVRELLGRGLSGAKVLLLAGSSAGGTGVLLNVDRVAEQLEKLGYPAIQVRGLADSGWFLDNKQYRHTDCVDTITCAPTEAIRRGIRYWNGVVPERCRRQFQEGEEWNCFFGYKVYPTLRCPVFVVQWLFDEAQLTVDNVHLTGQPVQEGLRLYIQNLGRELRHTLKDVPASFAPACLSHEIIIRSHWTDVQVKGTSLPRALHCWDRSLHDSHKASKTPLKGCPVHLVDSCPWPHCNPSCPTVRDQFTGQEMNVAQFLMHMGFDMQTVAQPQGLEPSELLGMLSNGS

T6: Mouse NOTUM (mouse, UniProt Q8R116 20-503)
T6 sequence: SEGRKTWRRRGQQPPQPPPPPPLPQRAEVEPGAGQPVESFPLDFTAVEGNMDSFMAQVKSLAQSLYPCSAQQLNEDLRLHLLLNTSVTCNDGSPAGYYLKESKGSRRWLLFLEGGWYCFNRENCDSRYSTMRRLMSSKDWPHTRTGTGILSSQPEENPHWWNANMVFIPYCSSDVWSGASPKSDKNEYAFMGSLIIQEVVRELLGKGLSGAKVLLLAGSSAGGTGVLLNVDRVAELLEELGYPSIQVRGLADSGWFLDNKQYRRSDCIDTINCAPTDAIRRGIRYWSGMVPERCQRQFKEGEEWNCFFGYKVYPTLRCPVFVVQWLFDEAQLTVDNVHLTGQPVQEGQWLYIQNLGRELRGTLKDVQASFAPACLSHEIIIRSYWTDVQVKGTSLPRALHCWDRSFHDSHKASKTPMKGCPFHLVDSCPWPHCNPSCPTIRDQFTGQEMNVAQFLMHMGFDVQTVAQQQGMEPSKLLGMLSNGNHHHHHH


Experiments:
Human NOTUM [1] = target: T1, Human NOTUM; experiment: Biacore 3000
Protocol: (§1) Binding affinities of certain anti-NOTUM MAbs was determined using a Biacore 3000. In order to obtain meaningful affinity values for binding to multimeric […] NOTUM protein, antibody FAb fragments were generated by digestion of whole IgG with the protease Ficin, followed by removal of undigested IgG and Fc fragments by protein A affinity chromatography. Affinity values for binding of FAbs and whole IgG to human NOTUM corresponded, and their affinity values were in the single to low double digit nM range, as shown in Table 3.

Guinea pig NOTUM = target: T2, Guinea pig NOTUM; experiment: ELISA
Rhesus monkey NOTUM = target: T3, Rhesus monkey NOTUM; experiment: ELISA
Human NOTUM D137A/R139A = target: T4, Human NOTUM D137A/R139A; experiment: ELISA
Human NOTUM R144A/R145A = target: T5, Human NOTUM R144A/R145A; experiment: ELISA
Mouse NOTUM [2] = target: T6, Mouse NOTUM; experiment: cell-based or functional assay
Human NOTUM [3] = target: T1, Human NOTUM; experiment: cell-based or functional assay
Mouse NOTUM [4] = target: T6, Mouse NOTUM; experiment: Biacore 3000
Protocol: as §1

Human NOTUM [5] = target: T1, Human NOTUM; experiment: cell-based or functional assay; remark: listed apart in the source
Mouse NOTUM [6] = target: T6, Mouse NOTUM; experiment: cell-based or functional assay; remark: listed apart in the source
Human NOTUM [7] = target: T1, Human NOTUM; experiment: cell-based or functional assay; remark: listed apart in the source
Human NOTUM [8] = target: T1, Human NOTUM; experiment: ELISA (column 'Human NOTUM binding')

Row | Binder | Kd (Human NOTUM [1]) | kon (Human NOTUM [1]) | binding result (Guinea pig NOTUM) | binding result (Rhesus monkey NOTUM) | OPTS IC50 (nM; mouse NOTUM) (Mouse NOTUM [2]) | OPTS IC50 (nM; human NOTUM) (Human NOTUM [3]) | Wnt signaling IC50 (nM; human NOTUM) (Human NOTUM [3]) | also measured
1 | MAb 2.78 (antibody, V domains shown, Mouse monoclonal antibody from Campaign 2 (raised against mouse NOTUM), IgG2b) VH: DVQLVESGGGLVQPGGSRKLSCAASGFTFSSFGMHWVRQAPEKGLEWVAYITSGSGAIYYADTVRGRFTISRDTPKNTLFLQMTSLRSEDTAMYYCARSADGLDYWGQGTSVTVSS VL: DIQMTQSPASLYVSVGETVTITCRASENIYSNLAWYQQKQGKSPQLLVYGATNLADGVPSRFSGSGSGTQYSLKINSLKSEDFGSYYCQHFWGTPFTFGSGTKLEIKR | 17.6 nM | 47900 M⁻¹ s⁻¹ | binds | binds | 35.6 nM | 15.5 nM | 45.9 nM | binding result (Human NOTUM D137A/R139A): no binding; binding result (Human NOTUM R144A/R145A): no binding; Wnt signaling IC50 (nM; mouse NOTUM) (Mouse NOTUM [2]): 3.75 nM
2 | 2.78 Fab (Fab, V domains shown, Fab made by digestion of whole IgG (mouse IgG2b) with ficin) VH: DVQLVESGGGLVQPGGSRKLSCAASGFTFSSFGMHWVRQAPEKGLEWVAYITSGSGAIYYADTVRGRFTISRDTPKNTLFLQMTSLRSEDTAMYYCARSADGLDYWGQGTSVTVSS VL: DIQMTQSPASLYVSVGETVTITCRASENIYSNLAWYQQKQGKSPQLLVYGATNLADGVPSRFSGSGSGTQYSLKINSLKSEDFGSYYCQHFWGTPFTFGSGTKLEIKR | 15.4 nM | 87700 M⁻¹ s⁻¹ |  |  |  |  |  | Kd (Mouse NOTUM [4]): 4.99 nM; kon (Mouse NOTUM [4]): 39100 M⁻¹ s⁻¹; koff (Human NOTUM [1]): 0.00136 s⁻¹
3 | MAb 1.731 (antibody, IgG1, V domains shown) VH: EVQLQQSGPELVKPGASVKVSCKASGYPFTDYFIHWVKQTHGKSLEWIGYFFPKNGANGYNQKFEGKVTLTVDKSSSTAYMELRSLTSEDSAVYYCARRYGNYYSMDYWGQGTSVTVSS VL: SFVMTQTPKFLLVSAGDRVTITCKASQSVGDDVAWYQQKPGQSPTLLIYRVSNRYTGVPDRFTGSGYGTDFTFTINTVQAEDLAVYFCQQDYSSPYTFGGGTQLEVKR |  |  |  |  |  |  |  | OPTS IC50 (nM; mouse NOTUM) (Mouse NOTUM [6]): 197 nM; OPTS IC50 (nM; human NOTUM) (Human NOTUM [7]): > 167 nM; Wnt signaling IC50 (nM; human NOTUM) (Human NOTUM [7]): 15.5 nM
4 | MAb 2.55 (antibody, IgG2a, V domains shown, Mouse monoclonal antibody from Campaign 2, IgG2a) VH: EVQLQQSGTVLARPGALVKMSCKASGYTFTSYWMHWVKQRPGQGLEWIGAIYPGKSDTRYNQKFKDKAKLTAVTSTSTAYMDLSSLTDEDSAVYYCSRRYGNFYAMDYWGQGTSVTVSS VL: SIVMTQTPKFLLVSAGDRVTMTCKASQSVSNDVAWYQQKPGQSPELLIYYASDRYTGVPDRFTGSGYGTDFTLTISTVQAEDLAVYFCQQDYSSPYTFGGGTKLETKR |  |  |  |  | 26.1 nM |  |  | binding result (Human NOTUM [8]): binds

Continued, in another order:

Row | Kd (Human NOTUM [1]) | kon (Human NOTUM [1]) | binding result (Guinea pig NOTUM) | binding result (Rhesus monkey NOTUM) | OPTS IC50 (nM; mouse NOTUM) (Mouse NOTUM [2]) | OPTS IC50 (nM; human NOTUM) (Human NOTUM [3]) | Wnt signaling IC50 (nM; human NOTUM) (Human NOTUM [3]) | Binder | also measured
5 | 5.99 nM | 151000 M⁻¹ s⁻¹ | binds | binds | 29.2 nM | 5.77 nM | 14 nM | MAb 2.1029 (antibody, IgG2a, V domains shown, Mouse monoclonal antibody from Campaign 2, IgG2a) VH: QVQLKESGPGLVAPSQSLSITCTVSGFSLTSYGVHWVRQPPGKGLEWLGVIWAGGSTNYNSALMSRLSISKDNSKSQVFLKMNSLQTDDTAIYFCARDGDYGTIYAMDYWGQGTSVTVSS VL: DIQMTQTTSSLSASLGDRVTISCRASQDISNYLNWYQQKPDGTVKLLIYYTSRLHSGVPSRFTGSGSGTDYSLTISNLEQEDIATYFCQQGKTLPRTFGGGTMLEIKR | IC50, neutralization in the Wnt signaling assay (Human NOTUM [5]): 14 nM
6 | 0.91 nM | 899000 M⁻¹ s⁻¹ |  |  |  |  |  | 1.802 Fab (Fab, V domains shown, Fab made by digestion of whole IgG (mouse IgG1) with ficin) VH: EVQLVESGGGLVKPGGSLKLSCAASGFTFSDYGMHWFRQAPEKGLEWVAYISSGSRTVYYADTVKGRFTISRDNAKNTLSLQMTSLRSEDTAMYYCARKHYNGGYFDVWGTGTTVTVSS VL: DIVLTQSPASLAVSLGQRATISCRASKIVSTSGYSYMHWYQQKPGQPPKLLIYLASNLESGVPARFSGSGSGTDFTLNIHPVEEEDAATYYCQHSRELPPTFGSGTKLEIKR | binding result (Mouse NOTUM [4]): no binding
